This assay concerns the target modern EF-Tu (elongation factor Tu) from E. coli (E. coli) (UniProt P0CE47). The assay is described as follows: ITC; Microcal ITC200; 0.6-1 mM NusA in the syringe titrated (2.5 uL injections, 120-s intervals) into 10 uM EF-Tu in the cell; Buffer C (20 mM Tris-HCl pH 7.5, 50 mM MgCl2, 100 mM KCl).

The term Kd denotes a measure of binding affinity in units of concentration. Consider “wild-type NusA protein from E. coli (from UniProt P0AFF6 1-495) (natural protein)”, for which the Kd amounted to 14.6 µM.

The values are drawn from paper PMC5371648.
